The experiment addresses T1, Flag-tagged IRE1α-LD (UniProt O75460 19-440).
T1 construct: signal peptide in the construct; inositol-requiring enzyme 1 (IRE1α/ERN1), luminal domain (LD), residues 1-440; The signal peptide is probably removed in HEK-293T cells; also called IRE1α-LD-FLAG; LD-FLAG; source: HEK-293T, purified (M2 beads, eluted with Flag peptide, concentrated by ultrafiltration)
T1 sequence (looked up): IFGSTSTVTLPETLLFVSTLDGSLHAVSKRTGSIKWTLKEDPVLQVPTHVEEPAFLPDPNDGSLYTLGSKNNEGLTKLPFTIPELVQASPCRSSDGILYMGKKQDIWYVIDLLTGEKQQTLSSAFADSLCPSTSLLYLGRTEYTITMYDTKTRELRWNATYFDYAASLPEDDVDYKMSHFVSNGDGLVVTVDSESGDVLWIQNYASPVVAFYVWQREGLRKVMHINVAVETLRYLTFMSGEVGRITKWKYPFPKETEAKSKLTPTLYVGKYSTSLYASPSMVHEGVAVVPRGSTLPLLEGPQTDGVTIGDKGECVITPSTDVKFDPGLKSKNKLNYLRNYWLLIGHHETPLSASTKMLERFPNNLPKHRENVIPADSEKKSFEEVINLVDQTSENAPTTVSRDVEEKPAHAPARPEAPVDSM
Nature of the experiment: pull-down; GST-BiP-NBD immobilized on glutathione Sepharose 4B beads, incubated with IRE1α-LD-FLAG eluate in buffer B (50 mM HEPES, 75 mM NaCl, 10% glycerol, 1 mM TCEP, pH 7.5) with 0.5 or 0.8 mM Ca2+, room temperature, 2 h; anti-FLAG immunoblot. Particulars: both partners purified. (In general: Immunoblotting shows a protein as a band on a membrane.)

The values below come from article PMC10318635, “ER Ca^2+ overload activates the IRE1α signaling and promotes cell survival” (Cell & Bioscience, 2023).

B1: GST-tagged BiP-nucleotide binding domain (NBD) (domain or fragment)
chain: not shown
notes: also called GST-BiP-NBD; BiP-NBD; source: bacterially purified, immobilized on glutathione Sepharose 4B beads
Regarding B1, the binding result is on record as “binds”.
